The results in this text go back to patent EP4755912A1 (Shandong Boan Biotechnology Co., Ltd., dated 2026).

Read-outs that look alike come from different tables or passages of the source.

What is called Kd is a measure of binding affinity in units of concentration. A lower Kd goes with tighter binding. Usually EC50 stands for the concentration needed to bring the measured effect to its halfway point. Lower therefore signals an effect from little substance.

The target in assay [1] is T1, Human CD228 protein (human, UniProt P08582 20-708, limits assumed).
T1 construct: A His tag is named only for the panning and Western blot material (CD228-His); also called CD228 antigenic protein; C28
T1 sequence: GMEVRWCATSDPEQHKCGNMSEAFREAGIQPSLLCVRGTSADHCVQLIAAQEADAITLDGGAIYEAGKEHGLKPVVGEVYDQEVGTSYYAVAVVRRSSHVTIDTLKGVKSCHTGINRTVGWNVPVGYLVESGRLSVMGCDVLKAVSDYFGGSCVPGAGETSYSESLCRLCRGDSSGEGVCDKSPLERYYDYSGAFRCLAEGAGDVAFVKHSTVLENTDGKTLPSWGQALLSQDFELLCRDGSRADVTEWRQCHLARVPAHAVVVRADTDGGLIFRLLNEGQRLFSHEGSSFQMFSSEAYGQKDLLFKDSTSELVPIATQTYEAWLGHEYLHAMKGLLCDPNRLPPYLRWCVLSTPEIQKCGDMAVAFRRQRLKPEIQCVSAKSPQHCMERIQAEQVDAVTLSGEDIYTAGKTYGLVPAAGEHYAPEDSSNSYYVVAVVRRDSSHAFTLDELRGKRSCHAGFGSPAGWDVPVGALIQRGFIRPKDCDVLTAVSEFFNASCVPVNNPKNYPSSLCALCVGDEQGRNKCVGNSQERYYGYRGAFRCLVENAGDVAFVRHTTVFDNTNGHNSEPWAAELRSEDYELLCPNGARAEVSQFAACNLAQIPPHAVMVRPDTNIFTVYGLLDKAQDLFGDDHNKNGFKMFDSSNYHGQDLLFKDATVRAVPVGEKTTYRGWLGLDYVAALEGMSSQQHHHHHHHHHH
The assay is described as follows: BLI, antibody on ProA sensor, CD228 protein in solution.

In assay [2] the target is T1, Human CD228 protein. The assay is described as follows: ELISA, plate coated with CD228 protein at 0.2 µg/mL. In general terms: In an ELISA, binding on a coated surface is turned into a signal by an enzyme label.
In assay [3] the target is T1, Human CD228 protein. Put plainly: BLI, antibody on ProA sensor, CD228 protein in solution. The source holds these as a separate data set.

B1: R546 (antibody, V domains shown)
VH: QSLEESGGRLVKPDETLTLTCTVSGFSLSSYDMSWVRQAPGKGLQWIGAATAGGNTYHASWAKGRFTISKTSTTVDLKITSPTTEDTATYFCTRGLNIWGPGTLVTVSS
VL: DPMLTQTASPVSAAVGSTVTINCQASQSVYNNNNLNWYQQKPGQPPKLLIYAASTLASGVPSRFKGSGSGTQFTLTISDVQCDDAATYYCLGAYDCSSADCGAFGGGTELEILG
notes: Rabbit-derived clone from a phage library, made as a full-length antibody with rabbit constant regions in HEK293 cells; also called CD228-R546; self-made antibody R546
Consider B1, for which the Kd with Human CD228 protein [1] and with Human CD228 protein [3] was 1.33 nM in each case. Further, the Response in the assay with Human CD228 protein [1] was 0.128. This molecule also had an EC50 in the assay with Human CD228 protein [2] of 1.52 ng/mL.

B2: R526 (antibody, V domains shown)
VH: QEQLEESGGRLVTPGTPLTLTCTVSGFSLSTYAINWIRQAPGKGLEWIGIIGGNGATYYTNWAKGRFTISKTSTTVDLKITSPTIEDTATYFCARGTNFWGPGTLVTVSS
VL: DPVLTQTASPVSAAVGGTITINCQASQSVYNNNQLSWFQQNPGQPPKRLIHSTSTLAPGVSSRFKGSGSGTQFTLTISDVQCDDAATYYCLGSYDCVSADCNAFGGGTEVVVKG
notes: Rabbit-derived clone, full-length antibody with rabbit constant regions
In the assay with Human CD228 protein [1], B2 gave a Kd of less than 0.001 nM and a Response of 0.0251. Also, the EC50 with Human CD228 protein [2] came out at 5.71 ng/mL.
